Reference: a protein production outcome set (Wang et al. 2014)

Assay: label from the status in PepcDB records

Row | Sequence | protein production
1 | MLRIFQGRPAVTIAAVLVAASVAGCAGKAKKPTLVYEERPVELLYSTGADRLDRGNWNEAVDYFREVERQHPYSEWSRRSILMTGYAHYMGNQYAEAIGDADRFISLYPGNPSAQYAFYLKAICYFEQIVDVNRDQAATEQALAALRDVVQRYPNTEYATDARLKIDMVNDQLAGKEMAIGRWYLKNGQTLAAIGRFKAVIERHQTTSHTPEALFRLVEAYLTIGLNEEAKRNGAVLGYNFPGDRWYVDAYRLLNDNGLRPAVEPLKAGAKRNALERILSKDKEATLAPPGERKAKKGLLGPLGM | failed
2 | MVTALARPEQTMQELAFRTLLYRYFFFDWLFKDASRGDLRERSAAWRFNQAHAHWLLTYLRRWVWCGALFCLLGGSIELMLSAPVLSAFFYVPGVLSVPINVVICVLWVGLKTLPGPM | failed
3 | MPTIEDRYARLDAARWLAALAVVLLHSAAQTVSDPAAYGSHAWLAANLYDSAAHWCVPVFVMVSGALLLDPDQPHDARRFYSRRMARVCAPLLFWTLFYLAWRTALDWWDDGRLDFSFWPRKVAEGAPYYHLWYLYMIVGLYLFAPLVRLLYARSQPRARALWVVGILGVAVLDALYRRALGGGNGLFLTWFLPYLGYFVAGRLIFDGELRMPRPGLVLAASVAATAWGVSALSDSRALDLYFYDYFSVTVPLMSLAAFQLIVGSPRLPALPALPALAPLTFGIYLIHPLFLDLAHRIGAARAWRPDAWGVPAITAAVFALSALASWMLRRHRLTRRLV | failed
4 | MAEILRLSPAICAYPDETYENLKIEVVLPGVEKENISFKVVEDGFYVKATKEGVEYTDSYAVCCPISPEKATATYSNGVLKVNVPYQQPFEKAVDVKIE | failed
5 | MAGAGGGNDIQWCFSQVKGAVDDDVAEADIISTVEFNHSGELLATGDKGGRVVIFQQEQENKIQSHSRGEYNVYSTFQSHEPEFDYLKSLEIEEKINKIRWLPQKNAAQFLLSTNDKTIKLWKISERDKRPEGYNLKEEDGRYRDPTTVTTLRVPVFRPMDLMVEASPRRIFANAHTYHINSISINSDYETYLSADDLRINLWHLEITDRSFNIVDIKPANMEELTEVITAAEFHPNSCNTFVYSSSKGTIRLCDMRASALCDRHSKLFEEPEDPSNRSFFSEIISSISDVKFSHSGRYMMTRDYLSVKIWDLNMENRPVETYQVHEYLRSKLCSLYENDCIFDKFECCWNGSDSVVMTGSYNNFFRMFDRNTKRDITLEASRENNKPRTVLKPRKVCASGKRKKDEISVDSLDFNKKILHTAWHPKENIIAVATTNNLYIFQDKVN | failed
6 | EDKKGGTKPSNEAALTKTENLDFRLSFNKIKVTTDQNHFSGGTSIEQLKQWFGDPNKSEQRNAGNITLDSYTWVKDGAVINAQLYKNSTVARSISNFSFSREAKIGKEDYDELKIGESYKKVVEKLGEPDVLSQSMSSDKEEMQTVWSSGIKTKSSSATIELYFENGLLKNKTQKDLE | not failed
7 | MRGPAEQPPVTAISADATDADAAWRIMEQTRPDVVIMNAGAEPPMERIDRIGWEAFTTNWNVDVKAALHWVQAALTVPMAPGGLVVLISSGAAVQGSPLSGGYAGAKRAQWFIAKYADGLSAELGLGLRFRVLVPRQMFVGTGVGDTGIGAYAAKAGRTFAEQAATWPNMTPRAFGDTVAELIGKSGLAEAMVYAVRGDTGVTVIE | failed
8 | WPIWTRRSDGTLSFANAAYARATDASDAADAIGRNLELLDSGDRAALARALGDGYEYSGRLPIVVGGERRYYDVRALKVSGGSAGIAVDATETAALGAALERMADAHRRTLDQLSSGVAVFDAQRRLSFYNDSYRKLWDL | failed
9 | MTTAKRDTYTPETLLSVAVQVFIERGYDGTSMEHLSKAAGISKSSIYHHVTGKEELLRRAVSRALDELFGILDEEHARVGTAAERLEYVVRRMVEVLMAELPYVTLLLRVRGNTGTERWALERRREFDHRVAALLKDAAAEGDVRADVEVRLATRLVFGMINSIVEWYRPEGPDGRSDASGASGVSGAGEREVVDAVARLVFGGLRKAS | not failed
10 | MPVQNRIHKGINMNSYAHLNVEKRGHTAVVTIDNPPANTWNRASLTALKQLVADLNADRDIYALVITGQGEKFFSAGADLNLFADGDKKVATEMTLLFGEAFEALSAFRGVSIAAINGYAMGGGLECALACDIRIAEEQAQMALPEAGVGLLPCAGGTQNLPWLVGEGWAKRMILCGERVNAATAERIGLVEQVVAKGEALAAALKLAEGVARQSPSSVGVCKQLVQAARTQPPAWNLIKEREAFIKLFDTQDQAEGTRAFLEKRAPNWKNA | failed
11 | MKNVLLLGESGFVGSVVYNSLHCVCKVYTIAPNKKITIDNVFEVANDVFKSIEINNIDVVINCIAMANLDQCENNKLDCELVNTTFVTHIVDYLKDKDIKLVHISSNAVYDGLNAPYSENSLREPINYYGICKSNADYYIESNLNNYAIARPITVYGPRKIEQRDNPVSFIVKKILSGESFDLVDDNIVNMIHVEDLSNAIKKLSLSDLKGVYNLSGDVSECRYDLGIRIAKIMGSDLNKINKVSGSNFKMAAKRPYNTSFDNKKMKSVLNIEPKNIDIAISEILNAKAY | failed
12 | MTITDKNRLTGEADPRRTSLYGPPSMDALTERALHLARAGRALLGIVGEPGAGKSTFAEQLRARLEKERPGLAVTVSMDGFHLAQKVIEARGQAADKGTIDTFDADGFVALLRRTRAETGDTENTESTVWWPEFDRDLEDPVAGSIEVAPHHRLVIVDGNFLLSAQEPWRQVKGLLDETWFLDALPEPRRERLTRRYISYGFTPEAARAKTLGVDEDTSALIRSTVSRADLVIGEARESGGVSDCLEHHHHHH | failed
13 | MDCYLNAANSFARILDEYQTYNSLVVAFDFDDTVYDFHKKGRLYADVVTLLRDLKKINCHLICWTGQEDLTFVKNYLMENNIPFDDINENPPFHVSSSKKVYANVYLDDRAGLKQVFGELTQLLQHESIRIKSV | failed
14 | MMFDFDKIIERQSDKCRKWDHAFVCSRFGDVPESFIPLWIADMDFTSPPAVIDGFRRIVEHGTFGYTWCFDEFYDAVIAFQRKRHQVEVEKSWITLTYGTVSTLHYTIQAYCKPGDSVMMNTPVYDPFAMAAQRQGVQVLANPLRVEENRYQLDFNLIEEQLKTYRPTLWFFCSPHNPSGRIWREEEIRQVSDLCQRYGTILVVDEVHAEHILDGKFVSCLTSGCAAQDNLIVLTSPNKALKLGGLKTSYSMIPDDSLRQRFRQQLEKNSITSPNLFGVWGIILAYQHGLPWLDALNDYLQGNARYLADALQTHFPAWKMMTPESSYLAWIDVSADESSATQLTQHFARQAGVVIEDGSHYVQNGENYLQINFGSQRYWLERSTNRMQ | failed
15 | MTLTLGEFIKILEATGYPVAYSHFTATPGNPVPAPPYICFLVDGSANLMADNKVYHKINDVNIELYTTKKDLVAEAKLEQVLDDHEIPYGSYGTFIESENMYQKFYETRLI | failed
16 | MLPRVHRVRRGGTVYKYHRRTRKELPRDVPEDDPRFVAAWLAEEQRAPTVRSRSQAGTIAAACEAYLGSRSYRELSDGYRPVIRRHVERIKEQGEKALLKDLLPRHIRADLEPLSPPVASSRLKAWRKLAEFWLLKGMLDADPSEGVKRKKMGKVAGFTEWTAEDLEAFRARWPIGTAQRLALELYQWTGARCVDVIRLGPQMVGRDGVLTYVQQKTGNPAHVPWTCPAFGLEEQRADLMRCLPVGSPVYMLTEYGKPRTQKGVSQWFSAAAREAGLESRTAHGLRKYRMNALAEHGASVLVMQSWVGHTTLLEVQEYTRRADRRRVISGGHPVKRDPAGA | failed
17 | MKVLESAPSRYDRGIRIITLGKLDEAYDRLTSRIKPGQRVLDVGCGTGALTLRAALRGARVKAIDINPQMLEIARKRVEEAGVTGMVELCEMGVAELNTEASEGYDAVMAGLCFSELTEDELSYALREIKRVLKPGALLLIADEAVPESPVKRVLSWLIRAPLAVIAYLLIQTTTRAVKNLPEKLGEEGFLIESVRRSFMEDFVEIVARKPGR | failed
18 | MKKQEKGNEVVTFEENPSTYVHHHTKKASMVLSEQEIEVILQSNKETYNEKLEKNTKENAEKVGIEEGNGSSSKITPCIFYTSDEKARLRWSSDLHDCFVNAVEKLGGPNKATPKSVKEAMEVEGIALHHVKSHLQKFRLGKCNIRGGTNQYVRQSQSMPHKSQQQLQLNNDCVNHDSYCNATFLSVTVPPTIDSLHQDTLNNTILFPTTLQAIPTSVSHNTYMSSYPSYNTVEVVKAQLNALQDSSTSQTQETFSRETNLSSIVTRDEADPVDKYIDWNKVGETDIEHDSVEVLEALGLK | failed
